In the supplement of paper PMC6755084:

Tested on: F1*sub RNA substrate (template-directed ligation)
Assay: fraction ligated after 30 min (ligated reads / total reads); higher = more ligase activity; sequences stand for … in GAGACCGCAACTGAAAAGTTGT…AGTTCTGCACGTAGAAGCAAAAGGC
Conditions: 42 °C
Procedure, shortened: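 The ligase ribozyme variants were produced by PCR amplification of oligo-pool templates, T7 transcription and purification on gel. Their ligated and unligated forms were gel-separated, then reverse transcribed with barcoded primers before MiSeq sequencing. Core bases were filtered at a quality of ≥20, and fraction ligated per variant was ligated reads over total reads.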

Sequence	fraction ligated
TATCACTTGCGTAAGAACTTTGGAGGGTTGA [3d1663]	0.0542
TATCACTTGTCGTAAGACACTTTGGAGGTTG [3d2278]	0.00797
TATACTTGCGTAAGACCTTTGGATGGGTTGA [3d819]	0.629
TACCTTGTCGTAAGACACTTTGGATGGTTGA [3d544]	0.233
TATCACTTGTCGTAAGACATTTGATGGGTTG [3d2219]	0.098
TATCACTTTCGAAACACTTTGGATGGGTTGA [3d1494]	0.795
TATCACTTGTCTAAACACTTTGGATGGTTGA [3d1843]	0.288
TACACTTGCGTAAGACACTTTGATGGGTTGA [3d611]	0.0347
TATCACTTGCGTAAGACATTTGATGGGTTGA [3d1675]	0.574
TATCACTGTCGTAAGACACTTTGGTGGTTGA [3d1454]	0.0276
TATCCTTGTCGTAAGACTTTGGATGGGTTGA [3d1065]	0.76
TTCACTTGTCTAAGACACTTTGGATGGGTTG [3d415]	0.752
TATCATGTCGTAAGACACTTTGGATGGGTTGA [2d109]	0.792
TATCACTTGCGTAAGACACTTTGGAGGGTTA [3d1699]	0.122
TATCACTTGTGTAAGCACTTTGATGGGTTGA [3d1758]	0.811
TATCATTTCTAAGACACTTTGGATGGGTTGA [3d1141]	0.786
TTCACTTGTCTAAGACACTTTGGATGGTTGA [3d413]	0.661
TATCACTTGTCTAACACTTTGGATGGGTTGA [3d1824]	0.8
TATCACTTGTCTAAACACTTTGGAGGGTTGA [3d1842]	0.133
TATCACTTGTCGTAAACCTTTGGAGGGTTGA [3d2070]	0.15
TATCACTTGTCGTAAGACCTTTGGATGGTTA [3d2203]	0.127
TATCACTTGTCGTAAGACACTTGGATGGGTT [3d2253]	0.239
TTCACTTGTCGAAACACTTTGGATGGGTTGA [3d417]	0.0407

Sequence	fraction ligated
TATCCTTGTCGAAGACACTTTGGATGGGTTA [3d1040]	0.404
TATCACTGTCTAAACACTTTGGATGGGTTGA [3d1360]	0.816
ATCACTTGCGTAAGACACTTTGATGGGTTGA [3d150]	0.561
TACACTTGTCGTAAGACACTTTGGATGGTTA [3d734]	0.405
TATCACTGTGAAGACACTTTGGATGGGTTGA [3d1344]	0.863
TACACTTTCGTAAGACACTTTGGATGGGTTA [3d599]	0.00822
TATCACTTGTCAAGACACTTTGGATGGTTGA [3d1820]	0.288
TATCACTTGTCGTAAGCACTTTGATGGGTTA [3d2139]	0.124
TATACTTGTCGTAAGAATTTGGATGGGTTGA [3d903]	0.769
TATCACTTGCTAAGACACTTTGATGGGTTGA [3d1607]	0.738
TCACTTTCGTAAGACACTTTGGATGGGTTGA [3d6]	0.145
TATCATTTCGTAAGACACTTTGGATGGTTGA [3d1153]	0.101
TTCACTTGTCGAAGACCTTTGGATGGGTTGA [3d420]	0.66
TATCACTTGTCGAAGACACTTTGGAGGGTTG [3d1976]	0.08
TATCACTTGTGTAGACACTTTGGAGGGTTGA [3d1740]	0.0783
TATCACTTGTCGTAAGACACTTTGGGGGTTG [3d2272]	0.0105
TTCACTGTGTAAGACACTTTGGATGGGTTGA [3d339]	0.766
TATCCTTGTCGTAGACACTTTGGATGGTTGA [3d1052]	0.0426
TATCACTTGTGTAAGCACTTGGATGGGTTGA [3d1757]	0.805
TTCACTTGTCGTAAGACACTTTGATGGGTTGA [2d41]	0.553
ATCACTTGTCGTAAGACACTTGGAGGGTTGA [3d256]	0.0205
ATCACTTGTCGTAGACACTTTGGATGGGTTA [3d209]	0.728
TTACTTGTCGTAAGACCTTTGGATGGGTTGA [3d289]	0.229

Sequence	fraction ligated
TATCACTTGTGTAACACTTTGGATGGGTTGA [3d1732]	0.841
TATCTTGTCGTAAGACCTTTGGATGGGTTGA [3d749]	0.757
TTACTTGTCGTAAGAACTTTGGATGGGTTGA [3d288]	0.0626
TATCACTGTCTAAGACACTTTGGATGGGTTA [3d1370]	0.762
TATCACTTTCGTAGACACTTTGGATGGGTTGA [2d150]	0.802
TTCACTTGTCGTAAGAACTTTGGAGGGTTGA [3d466]	0.0901
TATCACTTGTCGTAAGCATTTGGTGGGTTGA [3d2123]	0.0465
TATCACTTTCGTAAGACACTTTATGGGTTGA [3d1568]	0.0429
TACACTTGTCGTAAGACCTTTGGATGGGTTG [3d706]	0.659
ATCATTGTCGTAAGACACTTTGGATGGGTTA [3d103]	0.093
TAACTGTCGTAAGACACTTTGGATGGGTTGA [3d509]	0.175
TATCACTTGTCGTAAGACACTTTGGTGGGTTA [2d291]	0.018
TATCACTTGTCGTAAGACACTTGGGGGTTGA [3d2244]	0.0227
TATCACTTGTCGTAAGACATTTGGTGGGTTA [3d2222]	0.00331
TTCACTTGTCGTAAGACATTTGGATGGGTTA [3d482]	0.167
TATCACTTGTTAAGACACTTTGGTGGGTTGA [3d1713]	0.111
TTCCTTGTCGTAAGACACTTTGGATGGGTTGA [2d26]	0.778
TATCACTTGTCGTAAGACACTTTAGGGTTGA [3d2256]	0.0176
TATATTGTCGTAAGACACTTTGGAGGGTTGA [3d773]	0.0159
ATCACTTGTCTAAGACACTTTGGATGGGTTGA [2d10]	0.765
ATCACTTGTCGTAAGACACTTGGATGGGTTA [3d258]	0.214
TATCATTCGTAAGACACTTTGGATGGGTTGA [3d1122]	0.776
TATCACTTGCGAAGACACTTTGGAGGGTTGA [3d1622]	0.105

Sequence	fraction ligated
TATCACTTGTCTAAACACTTTGATGGGTTGA [3d1840]	0.753
TATCACTTTGTAAACACTTTGGATGGGTTGA [3d1467]	0.823
TATCACTTGTCGTAAACTTTGGATGGGTTGA [3d1993]	0.804
TACACTTGTCTAAGACACTTGGATGGGTTGA [3d639]	0.087
TTCACTTGTCGTAAGACCTTTGGATGGGTTA [3d475]	0.347
TATCACTTGTCGTAGACACTTGGATGGTTGA [3d2039]	0.095
TATCACTGTCGTAAGACCTTTGGATGGGTTG [3d1432]	0.835
TTCACTTGTCGTAGAACTTTGGATGGGTTGA [3d432]	0.761
ATCACTTGTCGTAGCACTTTGGATGGGTTGA [3d200]	0.749
TATCACTGTCTAAGACACTTTGGTGGGTTGA [3d1367]	0.34
TATCCTTGTCGTAAACATTTGGATGGGTTGA [3d1057]	0.771
TATCATTTCGTAAGAACTTTGGATGGGTTGA [3d1146]	0.857
TATCACTTGTGTAGACCTTTGGATGGGTTGA [3d1735]	0.845
TATCACTTGTGTAAACCTTTGGATGGGTTGA [3d1745]	0.807
TATCACTTGTCGTAAGCACTTTGGAGGGTTG [3d2147]	0.116
TTCCTTGTCGTAAGACACTTTGGAGGGTTGA [3d313]	0.186
TATCATTGTCGAAGACACTTTGGATGGGTTGA [2d114]	0.798
TATCCTTTCGTAAGACACTTTGGATGGGTTGA [2d91]	0.786
TATCCTTGTCGTAAGACCTTGGATGGGTTGA [3d1083]	0.756
TATACTTTCGTAGACACTTTGGATGGGTTGA [3d799]	0.268
TATCACTGTCGTAAGACACTTGGAGGGTTGA [3d1443]	0.0736
AACTTGTCGTAAGACACTTTGGATGGGTTGA [3d24]	0.293
TATCACTTGTCGTAAGACATTGGAGGGTTGA [3d2210]	0.0593

Sequence	fraction ligated
TTCACTTGTCGTAAGCACTTTGGAGGGTTGA [3d458]	0.051
TATCATTGTCGTAAGACACTTGGTGGGTTGA [3d1271]	0.482
TATCACGCGTAAGACACTTTGGATGGGTTGA [3d1294]	0.814
TATCACTGTCGTAAGAACTTTGGATGGTTGA [3d1423]	0.26
TTCCTTGTGTAAGACACTTTGGATGGGTTGA [3d301]	0.782
TATCATTGTCGTAACACTTTGGATGGGTTGA [3d1215]	0.815
TTCACTTGTCGTAAGACACTTTGGATGGGTTG [2d46]	0.792
TATCCTTGTCGAAACACTTTGGATGGGTTGA [3d1030]	0.81
ATCATTTCGTAAGACACTTTGGATGGGTTGA [3d87]	0.654
TATCACTTGCGTAAGACACTGGATGGGTTGA [3d1681]	0.799
ATCACTTGTCGAAACACTTTGGATGGGTTGA [3d186]	0.784
TATCACTGTCGTAAGCACTTGGATGGGTTGA [3d1411]	0.745
TATCCTGTCGTAAGACACTTTGATGGGTTGA [3d962]	0.754
TATCACTTGCGTAGCACTTTGGATGGGTTGA [3d1628]	0.859
TATCACTGTCGTAAGACCTTTGGAGGGTTGA [3d1429]	0.133
TATCCTTGTCGTAGAACTTTGGATGGGTTGA [3d1045]	0.792
TATCACTTGTGTAAGACACTTTGGATGGGTTG [2d193]	0.845
TATCCTTGTCGTAAGACACTTTGGTGGTTGA [3d1111]	0.0166
ATCACTTGTCAAGACACTTTGGATGGGTTGA [3d171]	0.749
ATCACTTGTCGTAAGACATTTGGATGGTTGA [3d250]	0.445
